Where no end group is shown, it is not given here.
B1: mitofusin-2 (MFN2) of MEF mitochondria (natural protein, mouse (endogenous in MEFs), UniProt Q80U63 1-757, looked up)
chain: MSLLFSRCNSIVTVKKDKRHMAEVNASPLKHFVTAKKKINGIFEQLGAYIQESASFLEDTHRNTELDPVTTEEQVLDVKGYLSKVRGISEVLARRHMKVAFFGRTSNGKSTVINAMLWDKVLPSGIGHTTNCFLRVGGTDGHEAFLLTEGSEEKKSVKTVNQLAHALHQDEQLHAGSMVSVMWPNSKCPLLKDDLVLMDSPGIDVTTELDSWIDKFCLDADVFVLVANSESTLMQTEKQFFHKVSERLSRPNIFILNNRWDASASEPEYMEEVRRQHMERCTSFLVDELGVVDRAQAGDRIFFVSAKEVLSARVQKAQGMPEGGGALAEGFQVRMFEFQNFERQFEECISQSAVKTKFEQHTVRAKQIAEAVRLIMDSLHIAAQEQRVYCLEMREERQDRLRFIDKQLELLAQDYKLRIKQITEEVERQVSTAMAEEIRRLSVLVDEYQMDFHPSPVVLKVYKNELHRHIEEGLGRNLSDRCSTAIASSLQTMQQDMIDGLKPLLPVSMRNQIDMLVPRQCFSLSYDLNCDKLCADFQEDIEFHFSLGWTMLVNRFLGPKNSRRALLGYSDQVQRPLPLTPANPSMPPLPQSSLTQEELMVSMVTGLASLTSRTSMGILVVGGVVWKAVGWRLIALSFGLYGLLYVYERLTWTTKAKERAFKRQFVEYASEKLQLIISYTGSNCSHQVQQELSGTFAHLCQQVDITRDNLEQEIAAMNKKVEALDSLQSRAKLLRNKAGWLDSELNMFTHQYLQPSR
notes: mitofusin-2 (MFN2), endogenous in mouse embryonic fibroblasts, detected with an anti-MFN2 antibody; source: endogenous, mitochondria isolated from MEFs, digitonin lysate

Tests used:
[1] = target: the molecule itself; assay: native gel or EMSA; BN-PAGE of digitonin lysates of mitochondria isolated from MEFs, without GTP; blot with anti-MFN2
[2] = target: T1, MFN2-HR2 domain (residues 678–757) (human, UniProt O95140 678-757); assay: MST
T1 chain: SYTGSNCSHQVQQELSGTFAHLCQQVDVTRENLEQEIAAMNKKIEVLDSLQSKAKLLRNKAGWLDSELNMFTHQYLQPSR

| Binder | stoichiometry N [1] | Kd [2] [nM] |
| --- | --- | --- |
| B1 | 2 | – |
| QIAEAVRLIMDSLHMAAR (also: 'Gly' in name not defined) [367–384Gly peptide] | – | 3000 |
| QDRLKFIDKQLELLAQDYKLR (also: 'Gly' in name not defined) [398–418Gly peptide] | – | 1500 |
